How the values were obtained:
[1] = molecular target: HLA-A*0201 class I monomer on avidin-coated plates (iTopia Epitope Discovery System) (human); test: iTopia affinity assay (FIGS. 27A and 27B)
[2] = molecular target: HLA-A*0201 class I monomer on avidin-coated plates (iTopia Epitope Discovery System) (human); test: iTopia off-rate assay (FIG. 26)

Row | fold reduction of ED50 against the native peptide [1] [fold] | t1/2 [2] [h] | Substance
1 | > 4 |  | PRAME425-433 S425F L433Nle analog (peptide)
2 |  | 17.2 | PRAME425-433 analog with Nva at PΩ (peptide)

— patent US20070060518A1
